In patent US7186551B1, “3′-phosphoadenosine -5′-phosphosulfate synthetase 2 (PAPSS2) sequence variants” (Mayo Foundation for Medical Education and Research, priority 2001, dated 2007):

Columns and labels:
[1] = system: PAPSS2; assay: PAPSS2 enzyme activity, coupled radiochemical assay (PAPS generation then SULT1E1-catalyzed sulfation of [3H]estradiol) with COS-1 expressed recombinant allozymes; assay type: biochemical, human; settings: His-tagged recombinant allozyme, loxP-modified p91023(b) vector, COS-1 cells, corrected for transfection efficiency
Excerpt: Variant alleles of the four non-synonymous PAPSS2 cSNPs observed during the resequencing experiments were created using the QuickChange Site-Directed Mutagenesis Kit (Stratagene, La Jolla, Calif.), with wild type PAPSS2 cDNA in pUni as template. The sequence of the pUni insert was confirmed by completely sequencing both strands before recombination with the loxP-modified p91023(b) acceptor vector. pUni donor vectors that contained wild type and variant PAPSS2 cDNAs, as well as empty pUni, then were combined with the loxP-modified p91023(b) acceptor vector to generate the final expression constructs. In all cases, the fusion junctions of resultant expression constructs were sequenced to confirm that the construct was a dimer consisting of only a single donor and a single acceptor vector. These expression constructs were used to transfect COS-1 cells using TransFast™ reagent (Promega) with a 1:1 charge ratio. pSV-β-galactosidase (Promega) was co-transfected with each construct as an internal control to correct for transfection efficiency. Transfected COS-1 cells were harvested after 48 hours and were homogenized with a Polytron homogenizer (Brinkmann Instruments, Westbury, N.Y.) in 25 mM potassium phosphate buffer, pH 7.8, containing 1 mM dithiothreitol (DTT) and 1 mM EDTA. The homogenates were centrifuged at 15,000 g for 15 minutes, and the resultant supernatant preparations were used to perform enzyme assays, substrate kinetic studies and Western blot analyses. In some cases, aliquots of these cytosol preparations were stored at −80° C. prior to assay.
PAPSS2 Enzyme Activity: PAPSS2 activity was measured with a coupled radiochemical assay. See Xu et al., 2001, supra. Briefly, PAPS is generated from ATP and Na2SO4 in a PAPSS2-catalyzed reaction. The generated PAPS is then used as a substrate for the SULT1E1-catalyzed sulfate conjugation of [2,4,6,7-^3H]estradiol, a radioactively labeled sulfate acceptor substrate. The cell homogenate preparations of recombinant PAPSS2 allozymes described above were used for the activity studies without any further purification. The protein concentration of each recombinant protein preparation was determined by the dye-binding method of Bradford with bovine serum albumin (BSA) as a standard.
PAPS synthesis was catalyzed by recombinant wild-type PAPSS2 or PAPSS2 allozymes (present in the cell homogenate preparations described above) in the presence of 1 mM ATP, 16 mM Na2SO4, 1 mM MgCl2, and 2 mM DTT in 60 mM glycine-NaOH buffer, pH 8.6. Blank samples included the same quantity of COS-1 cytosol protein from cells that had been transfected with empty expression vector to make it possible to correct for endogenous activity. Reaction mixtures were incubated at 37° C. for 20 minutes, and then terminated by heating at 100° C. for 1 minute. An aliquot from this PAPS-generating reaction was then added to a second, coupled reaction containing recombinant human SULT1E1 isolated from COS-1 cells transfected with a SULT1E1 expression construct (see Aksoy et al., Biochem. Biophys. Res. Commun., 200:1621–1629 (1994)). The coupled reaction also included 27 nM [2,4,6,7-^3H]estradiol, 8 mM DTT and 1.25 mM MgCl2 in 10 mM potassium phosphate buffer, pH 6.5. The second, SULT1E1-catalyzed reactions were incubated at 37° C. for 20 minutes, and then terminated by the addition of KOH, followed by organic solvent extraction performed with chloroform. Radioactivity of the sulfate conjugated [2,4,6,7-^3H]estradiol in the aqueous phase after organic solvent extraction was then measured in a liquid scintillation counter. PAPSS activities of recombinant PAPSS2 allozymes were compared after correction for transfection efficiency by measuring the activity of cotransfected P-galactosidase. β-Galactosidase activity in the COS-1 cell preparations was measured with the β-Galactosidase Assay System (Promega) as described by the manufacturer. […]

[2] = molecular target: T1, PAPSS2 (Homo sapiens, UniProt O95340); assay: PAPSS activity of cells transfected with wild type PAPSS2 construct versus empty vector / endogenous activity; assay type: biochemical; settings: loxP-modified p91023(b) vector, COS-1 cells
T1 construct: the wild-type full-length open reading frame (ORF) of the human PAPSS2 cDNA; made in house; host or cells: COS-1 or HepG2 cells, transient transfection; cytosol not purified
T1 sequence (O95340 1-614 R426C): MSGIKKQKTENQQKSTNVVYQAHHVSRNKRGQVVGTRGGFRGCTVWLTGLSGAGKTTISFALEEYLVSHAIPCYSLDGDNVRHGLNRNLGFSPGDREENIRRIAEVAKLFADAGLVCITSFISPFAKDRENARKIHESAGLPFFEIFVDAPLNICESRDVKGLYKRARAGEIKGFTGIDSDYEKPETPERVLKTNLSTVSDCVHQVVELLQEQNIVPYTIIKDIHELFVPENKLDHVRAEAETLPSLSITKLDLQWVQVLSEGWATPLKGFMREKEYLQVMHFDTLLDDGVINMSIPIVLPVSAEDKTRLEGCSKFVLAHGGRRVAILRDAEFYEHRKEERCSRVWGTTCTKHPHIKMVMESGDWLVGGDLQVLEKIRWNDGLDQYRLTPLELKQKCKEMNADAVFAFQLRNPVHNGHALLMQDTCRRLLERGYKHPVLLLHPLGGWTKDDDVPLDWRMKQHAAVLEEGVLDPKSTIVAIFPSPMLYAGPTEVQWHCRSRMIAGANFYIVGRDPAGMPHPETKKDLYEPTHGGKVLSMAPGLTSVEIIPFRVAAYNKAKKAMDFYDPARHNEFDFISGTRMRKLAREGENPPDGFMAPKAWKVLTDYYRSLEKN
Procedure: Initial expression studies were performed with the commercially available pcDNA4/HisMax-E (pcDNA4) acceptor vector (Invitrogen). Specifically, the pUni donor vector, with and without the PAPSS2 cDNA insert, was combined with the pcDNA4 acceptor vector by Cre recombinase through the loxP sites present in both donor and acceptor vectors. The resultant fusion constructs (pUni/pcDNA4) then were used to transfect either COS-1 or HepG2 cells. However, the construct with the wild type PAPSS2 cDNA insert expressed only about 2-fold higher PAPSS activity in both COS-1 and HepG2 cells than did the control “empty” pUni-pcDNA4. This low signal/noise ratio was due in part to the high levels of endogenous PAPSS activity in mammalian cells. Obviously, this situation would have made it difficult to study the functional significance of PAPSS2 non-synonymous cSNPs.
The loxP site required for Cre recombinase-mediated recombination thus was adapted for cloning into the p91023(b) cloning site so a recombination approach could be used to clone PAPSS2 cDNAs into this vector. A 133 base pair pcDNA4 DNA segment (nucleotides 1080–1212) containing the N-terminal His-tag and the loxP site was amplified by PCR, and this amplicon was ligated into the EcoRI site of p91023(b). As a result, the loxP-modified p91023(b) acceptor vector was also able to add an N-terminal His-tag to the expressed protein. […]

B1: wild type: reference human PAPSS2 polypeptide (SEQ ID NO:9, GenBank AF091242), recombinantly expressed in COS-1 cells (protein, listed as Homo sapiens)
chain: T1 sequence (O95340 1-614 R426C)
Question: What does the source list for B1?
Answer: % WT activity [1]: 100%; increase in PAPSS activity over basal endogenous activity [2]: greater than 7 fold
